From patent US20040018971A1 (published 2004)
Where no end group is shown, it is not given here. [ ]: non-standard residue; d: D form. Abu = CC[C@H](N)C(=O)O

Molecular target: HLA-A*0202 (human)
Assay: competition with 125I probe peptide for purified HLA

Binder	IC50
ALCRWGLLLA [Her2/neu.5 (10-mer) ALCRWGLLLA]	1960 nM
QLFEDNYALA [Her2/neu.106 (10-mer) QLFEDNYALA]	662 nM
QLMPYGCLL [Her2/neu.799 QLMPYGCLL]	977 nM

Molecular target: HLA-A*0203 (human)
Assay: as above

Binder	IC50
ALCRWGLLLA [Her2/neu.5 (10-mer) ALCRWGLLLA]	12 nM
QLFEDNYALA [Her2/neu.106 (10-mer) QLFEDNYALA]	9.1 nM
QLMPYGCLL [Her2/neu.799 QLMPYGCLL]	114 nM

Molecular target: HLA-A*0206 (human)
Assay: as above

Binder	IC50
ALCRWGLLLA [Her2/neu.5 (10-mer) ALCRWGLLLA]	1950 nM
QLFEDNYALA [Her2/neu.106 (10-mer) QLFEDNYALA]	218 nM
QLMPYGCLL [Her2/neu.799 QLMPYGCLL]	712 nM

Molecular target: HLA-A*6802 (human)
Assay: as above

Binder	IC50
ALCRWGLLLA [Her2/neu.5 (10-mer) ALCRWGLLLA]	2500 nM
QLFEDNYALA [Her2/neu.106 (10-mer) QLFEDNYALA]	74 nM
YMIMVKCWM [Her2/neu.952 (9-mer) YMIMVKCWM]	1000 nM

Molecular target: HLA-DR1 (DRB1*0101), purified HLA class II molecule (human)
Assay: competition with 125I-labelled probe peptide, purified HLA-DR

Binder	relative binding ratio
QPDVRPQPPSPREGP (also called Her2/neu.1142) [HER2/neu DR supermotif exemplary 15-mer QPDVRPQPPSPREGP (position 1142)]	0.0007 ratio (IC50 standard / IC50 test)
TQLFEDNYALAVLDN (also called Her2/neu.105) [HER2/neu DR supermotif exemplary 15-mer TQLFEDNYALAVLDN (position 105)]	0.053 ratio (IC50 standard / IC50 test)
VCPLHNQEVTAEDGT (also called Her2/neu.314) [HER2/neu DR supermotif exemplary 15-mer VCPLHNQEVTAEDGT (position 314)]	-0.0004 ratio (IC50 standard / IC50 test)
VEPLTPSGAMPNQAQ (also called Her2/neu.697) [HER2/neu DR supermotif exemplary 15-mer VEPLTPSGAMPNQAQ (position 697)]	-0.0008 ratio (IC50 standard / IC50 test)
VVGILLVVVLGVVFG (also called Her2/neu.658) [HER2/neu DR supermotif exemplary 15-mer VVGILLVVVLGVVFG (position 658)]	-0.0004 ratio (IC50 standard / IC50 test)

Molecular target: HLA-DR4w4 (DRB1*0401), purified HLA class II molecule (human)
Assay: as above

Binder	relative binding ratio
TQLFEDNYALAVLDN (also called Her2/neu.105) [HER2/neu DR supermotif exemplary 15-mer TQLFEDNYALAVLDN (position 105)]	-0.0025 ratio (IC50 standard / IC50 test)
VCPLHNQEVTAEDGT (also called Her2/neu.314) [HER2/neu DR supermotif exemplary 15-mer VCPLHNQEVTAEDGT (position 314)]	-0.0025 ratio (IC50 standard / IC50 test)
VEPLTPSGAMPNQAQ (also called Her2/neu.697) [HER2/neu DR supermotif exemplary 15-mer VEPLTPSGAMPNQAQ (position 697)]	-0.0025 ratio (IC50 standard / IC50 test)
VVGILLVVVLGVVFG (also called Her2/neu.658) [HER2/neu DR supermotif exemplary 15-mer VVGILLVVVLGVVFG (position 658)]	-0.0025 ratio (IC50 standard / IC50 test)

Molecular target: HLA-DR7 (DRB1*0701), purified HLA class II molecule (human)
Assay: as above

Binder	relative binding ratio
TQLFEDNYALAVLDN (also called Her2/neu.105) [HER2/neu DR supermotif exemplary 15-mer TQLFEDNYALAVLDN (position 105)]	0.016 ratio (IC50 standard / IC50 test)
VCPLHNQEVTAEDGT (also called Her2/neu.314) [HER2/neu DR supermotif exemplary 15-mer VCPLHNQEVTAEDGT (position 314)]	-0.0013 ratio (IC50 standard / IC50 test)
VEPLTPSGAMPNQAQ (also called Her2/neu.697) [HER2/neu DR supermotif exemplary 15-mer VEPLTPSGAMPNQAQ (position 697)]	-0.0011 ratio (IC50 standard / IC50 test)
VVGILLVVVLGVVFG (also called Her2/neu.658) [HER2/neu DR supermotif exemplary 15-mer VVGILLVVVLGVVFG (position 658)]	-0.0013 ratio (IC50 standard / IC50 test)

Molecular target: T1, HLA-A*0201 (human)
T1 construct: also called HLA-A2.1
Assay: competition with 125I-labelled probe peptide for purified HLA, gel filtration

Binder	IC50
VLIQRNPQV [Her2/neu.153V9]	55 nM
KTFGSLAFV [Her2/neu.369T2V9]	35 nM
SLISAVVGV [Her2/neu.653.L2V9]	7.1 nM
YLIMVKCWMV [Her2/neu.952L2V10]	13 nM
YLIMVK[Abu]WMV (also called YLIMVKBWMV) [Her2/neu.952L2B7V10]	7.2 nM

Molecular target: HLA-A*0202 (human)
Assay: as above

Binder	IC50
VLIQRNPQV [Her2/neu.153V9]	768 nM
KTFGSLAFV [Her2/neu.369T2V9]	13 nM
SLISAVVGV [Her2/neu.653.L2V9]	10 nM
YLIMVKCWMV [Her2/neu.952L2V10]	56 nM
YLIMVK[Abu]WMV (also called YLIMVKBWMV) [Her2/neu.952L2B7V10]	66 nM

Molecular target: HLA-A*0203 (human)
Assay: as above

Binder	IC50
VLIQRNPQV [Her2/neu.153V9]	135 nM
KTFGSLAFV [Her2/neu.369T2V9]	1010 nM
SLISAVVGV [Her2/neu.653.L2V9]	16 nM
YLIMVK[Abu]WMV (also called YLIMVKBWMV) [Her2/neu.952L2B7V10]	77 nM

Molecular target: HLA-A*0206 (human)
Assay: as above

Binder	IC50
VLIQRNPQV [Her2/neu.153V9]	385 nM
SLISAVVGV [Her2/neu.653.L2V9]	20 nM
YLIMVKCWMV [Her2/neu.952L2V10]	18 nM
YLIMVK[Abu]WMV (also called YLIMVKBWMV) [Her2/neu.952L2B7V10]	11 nM

Molecular target: HLA-A*6802 (human)
Assay: as above

Binder	IC50
KTFGSLAFV [Her2/neu.369T2V9]	17 nM
SLISAVVGV [Her2/neu.653.L2V9]	110 nM
YLIMVKCWMV [Her2/neu.952L2V10]	84 nM
YLIMVK[Abu]WMV (also called YLIMVKBWMV) [Her2/neu.952L2B7V10]	851 nM

Molecular target: T2, HLA-A*0201 (human)
T2 construct: also called HLA-A2.1; A2.1
Assay: competitive inhibition of 125I-labeled probe peptide binding to purified HLA-A*0201

Binder	IC50
GLACHQLCA [Her2/neu.508]	≤ 500 nM
QLMPYGCLL [Her2/neu.799]	≤ 500 nM
YMIMVKCWM [Her2/neu.952]	≤ 500 nM
ALCRWGLLLA [Her2/neu.5]	≤ 500 nM
QLFEDNYALA [Her2/neu.106]	≤ 500 nM
